Experimental data published in IntAct's records for PubMed 7664803.

B1: Proto-oncogene tyrosine-protein kinase LCK (Mus musculus), P06240 (parent)
chain: MGCVCSSNPEDDWMENIDVCENCHYPIVPLDSKISLPIRNGSEVRDPLVTYEGSLPPASPLQDNLVIALHSYEPSHDGDLGFEKGEQLRILEQSGEWWKAQSLTTGQEGFIPFNFVAKANSLEPEPWFFKNLSRKDAERQLLAPGNTHGSFLIRESESTAGSFSLSVRDFDQNQGEVVKHYKIRNLDNGGFYISPRITFPGLHDLVRHYTNASDGLCTKLSRPCQTQKPQKPWWEDEWEVPRETLKLVERLGAGQFGEVWMGYYNGHTKVAVKSLKQGSMSPDAFLAEANLMKQLQHPRLVRLYAVVTQEPIYIITEYMENGSLVDFLKTPSGIKLNVNKLLDMAAQIAEGMAFIEEQNYIHRDLRAANILVSDTLSCKIADFGLARLIEDNEYTAREGAKFPIKWTAPEAINYGTFTIKSDVWSFGILLTEIVTHGRIPYPGMTNPEVIQNLERGYRMVRPDNCPEELYHLMMLCWKERPEDRPTFDYLRSVLDDFFTATEGQYQPQP

Columns and labels:
cd4_mouse Cd4, P06332 = variants of: B1; details: with cd4_mouse Cd4, P06332
cd4_mouse Cd4, P06332, sequence (P06332 whole entry): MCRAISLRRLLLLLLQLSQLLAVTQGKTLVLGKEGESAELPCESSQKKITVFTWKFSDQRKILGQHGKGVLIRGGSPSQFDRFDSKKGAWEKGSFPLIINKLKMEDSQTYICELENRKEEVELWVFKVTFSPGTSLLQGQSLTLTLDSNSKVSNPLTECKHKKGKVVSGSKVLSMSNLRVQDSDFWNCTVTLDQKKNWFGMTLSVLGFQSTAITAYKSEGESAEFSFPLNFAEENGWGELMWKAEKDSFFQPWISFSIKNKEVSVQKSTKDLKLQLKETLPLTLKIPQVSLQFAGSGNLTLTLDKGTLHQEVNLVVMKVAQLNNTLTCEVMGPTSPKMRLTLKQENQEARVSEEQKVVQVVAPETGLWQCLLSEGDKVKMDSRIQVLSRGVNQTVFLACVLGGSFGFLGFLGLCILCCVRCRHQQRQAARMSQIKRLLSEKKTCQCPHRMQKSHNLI

cd8a_mouse Cd8a, P01731 = variants of: B1; details: with cd8a_mouse Cd8a
cd8a_mouse Cd8a, P01731, sequence (P01731 whole entry): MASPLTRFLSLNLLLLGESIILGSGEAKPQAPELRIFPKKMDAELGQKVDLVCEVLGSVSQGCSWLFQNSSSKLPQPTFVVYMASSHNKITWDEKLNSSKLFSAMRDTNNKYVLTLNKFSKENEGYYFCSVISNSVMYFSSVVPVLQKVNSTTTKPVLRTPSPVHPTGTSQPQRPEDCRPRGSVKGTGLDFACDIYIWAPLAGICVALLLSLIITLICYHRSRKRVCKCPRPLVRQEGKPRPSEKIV

| Variant | effect of a mutation on the interaction (cd4_mouse Cd4, P06332) | effect of a mutation on the interaction (cd8a_mouse Cd8a, P01731) |
| --- | --- | --- |
| C20A | decreasing interaction | decreasing interaction |
| C23A | decreasing interaction | decreasing interaction |
